# Reference: patent US20240301081A1
# Positions count from the first letter of the chain named.
# B1: hu CD45 HC2 + LC1 (antibody, V domains shown)
# VH: EVQLLESGGGLVQPGGSLRLSCAASGFDFSRYWMSWVRQAPGKGLEWVSEINPTSSTINYADSVKGRFTISRDNSKNTLYLQMNSLRAEDTAVYYCARGNYYRYGDAMDYWGQGTMVTVSS
# VL: DIVMTQSPDSLAVSLGERATINCKSSKSVSTSGYSYLHWYQQKPGQPPKLLIYLASNLESGVPDRFSGSGSGTDFTLTISSLQAEDVAVYYCQHSRELPFTFGQGTKLEIK
# B2: hu CD45 HC3 + LC1 (antibody, V domains shown)
# VH: B1 VH with L5V, S49A, Y60F, A61V, S75A, T78S
# VL: B1 VL
# B3: hu CD45 HC2 + LC4 (antibody, V domains shown)
# VH: B1 VH
# VL: DIQMTQSPSSLSASVGDRVTITCRASKSVSTSGYSYLHWYQQKPGKAPKLLIYLASNLQSGVPSRFSGSGSGTDFTLTISSLQPEDFATYYCQHSRELPFTFGQGTKLEIK
# B4: hu CD45 HC4 + LC4 (antibody, V domains shown)
# VH: B1 VH with L5V, Q13K, S75A, T78S
# VL: B3 VL
# B5: hu CD45 HC4 + LC3 (antibody, V domains shown)
# VH: B1 VH with L5V, Q13K, S75A, T78S
# VL: EIVLTQSPATLSLSPGERATLSCRASKSVSTSGYSYLHWYQQKPGQAPRLLIYLASNLATGIPARFSGSGSGTDFTLTISSLEPEDFAVYYCQHSRELPFTFGQGTKLEIK
# B6: hu CD45 HC2 + LC3 (antibody, V domains shown)
# VH: B1 VH
# VL: B5 VL
# B7: hu CD45 HC3 + LC4 (antibody, V domains shown)
# VH: B1 VH with L5V, S49A, Y60F, A61V, S75A, T78S
# VL: B3 VL
# B8: hu CD45 HC4 + LC1 (antibody, V domains shown)
# VH: B1 VH with L5V, Q13K, S75A, T78S
# VL: B1 VL
# Target: rhCD45 His tag (human) (UniProt P08575)
# Sequence of UniProt P08575 (P08575 26-577): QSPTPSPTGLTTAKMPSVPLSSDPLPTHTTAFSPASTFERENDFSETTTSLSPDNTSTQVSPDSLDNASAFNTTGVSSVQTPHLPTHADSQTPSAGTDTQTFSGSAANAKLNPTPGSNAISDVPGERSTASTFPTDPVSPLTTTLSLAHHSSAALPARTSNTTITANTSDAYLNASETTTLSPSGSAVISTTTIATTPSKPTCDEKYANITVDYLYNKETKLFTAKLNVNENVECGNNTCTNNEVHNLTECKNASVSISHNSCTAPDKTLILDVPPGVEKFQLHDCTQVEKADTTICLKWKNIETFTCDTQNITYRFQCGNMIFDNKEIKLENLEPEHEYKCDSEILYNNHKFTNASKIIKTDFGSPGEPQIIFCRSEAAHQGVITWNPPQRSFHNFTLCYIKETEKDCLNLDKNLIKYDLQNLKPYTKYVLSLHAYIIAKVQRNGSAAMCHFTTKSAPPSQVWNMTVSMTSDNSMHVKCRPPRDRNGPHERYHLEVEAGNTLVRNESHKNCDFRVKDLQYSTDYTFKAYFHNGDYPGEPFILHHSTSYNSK
# Assay: BLI (Octet HTX), compared with the parental antibody
row,Binder,fold change in KD relative to the parental antibody [fold]
1,B1,< 10
2,B2,< 10
3,B3,< 10
4,B4,< 10
5,B5,< 10
6,B6,< 10
7,B7,< 10
8,B8,< 10
